This note sets out measurements from publication PMC4646805 (Science Advances, 2015).

Assay [1] deals with T1, rabbit skeletal muscle actin, pyrene-labelled, phalloidin-stabilized (rabbit, UniProt P68135 1-377, pyrene (labelled with pyrene-maleimide)). In words: other fluorescence titration.
The target of assay [2] is T1, rabbit skeletal muscle actin, …. Nature of the assay: other fluorescence titration. The source holds these as a separate data set.

Positions count from the first letter of the chain named. In names and notes the source's numbering stands. Where two headings read alike, the source gives them in different places.

B1: wild-type human β-cardiac myosin short subfragment 1 (sS1) with C-terminal 6× His tag (complex)
chain 1: MGDSEMAVFGAAAPYLRKSEKERLEAQTRPFDLKKDVFVPDDKQEFVKAKIVSREGGKVTAETEYGKTVTVKEDQVMQQNPPKFDKIEDMAMLTFLHEPAVLYNLKDRYGSWMIYTYSGLFCVTVNPYKWLPVYTPEVVAAYRGKKRSEAPPHIFSISDNAYQYMLTDRENQSILITGESGAGKTVNTKRVIQYFAVIAAIGDRSKKDQSPGKGTLEDQIIQANPALEAFGNAKTVRNDNSSRFGKFIRIHFGATGKLASADIETYLLEKSRVIFQLKAERDYHIFYQILSNKKPELLDMLLITNNPYDYAFISQGETTVASIDDAEELMATDNAFDVLGFTSEEKNSMYKLTGAIMHFGNMKFKLKQREEQAEPDGTEEADKSAYLMGLNSADLLKGLCHPRVKVGNEYVTKGQNVQQVIYATGALAKAVYERMFNWMVTRINATLETKQPRQYFIGVLDIAGFEIFDFNSFEQLCINFTNEKLQQFFNHHMFVLEQEEYKKEGIEWTFIDFGMDLQACIDLIEKPMGIMSILEEECMFPKATDMTFKAKLFDNHLGKSANFQKPRNIKGKPEAHFSLIHYAGIVDYNIIGWLQKNKDPLNETVVGLYQKSSLKLLSTLFANYAGADAPIEKGKGKAKKGSSFQTVSALHRENLNKLMTNLRSTHPHFVRCIIPNETKSPGVMDNPLVMHQLRCNGVLEGIRICRKGFPNRILYGDFRQRYRILNPAAIPEGQFIDSRKGAEKLLSSLDIDHNQYKFGHTKVFFKAGLLGLLEEMRDERLSRIITRIQAQSRGVLARMEYKKLLERR
chain 2: not shown
For orientation: Kd means the free concentration of one partner at which half of the binding sites on the other are occupied at equilibrium, for simple one-to-one binding. A higher Kd goes with weaker binding. Turning to B1, the Kd amounted to 23.4 ± 2.5 nM in assay [1] and 10 ± 1.8 nM in assay [2].

B2: R403Q human β-cardiac myosin short subfragment 1 (sS1) with C-terminal 6× His tag (complex)
chain 1: B1 chain 1 with R403Q
chain 2: not shown
Consider B2, for which the Kd was 63.2 ± 16.7 nM in assay [1] and 19.7 ± 6.2 nM in assay [2].
